As a reminder, the Kd is a measure of binding affinity in units of concentration. Low readings indicate a tighter complex, high ones a looser complex.

From article PMC7730189 come the findings set out here.

Data set [1] relates to RcuCCA (CCA-adding enzyme, tRNA nucleotidyltransferase) (Romanomermis culicivorax). As to the kind of experiment: EMSA. To be noted: 6 mM Mg2+; HEPES/KOH pH 7.6, 30 mM KCl, 6 mM MgCl2, 20 C, 10 min; 0.5 pmol tRNA, 0-4 uM enzyme; 5% native PAGE; n = 3. On the technique in general: In EMSA bound probe runs differently from free probe, usually more slowly.
Data set [2] deals with Chimera E (HsaCCA with RcuCCA beta-turn region) (Homo sapiens / Romanomermis culicivorax chimera). The data set is described as follows: EMSA. To be noted: 6 mM Mg2+; HEPES/KOH pH 7.6, 30 mM KCl, 6 mM MgCl2, 20 C, 10 min; 0.5 pmol tRNA, 0-4 uM enzyme; 5% native PAGE; n = 3.

The substance “GCGGAUUUAGCUCAGUUGGGAGAGCGCCAGACUGAAGAUCUGGAGGUCCUGUGUUCGAUCCACAGAAUUCGCA [tRNAPhe (lacking CCA)]” displayed a Kd in data set [1] of 1.3 µM.
Regarding mt-tRNAIle (armless, lacking CCA), the Kd in data set [1] worked out at 1.4 µM; in data set [2] it was 1.8 µM.
